Measurements reported in patent US20090105116A1.
Each block holds one substance with its values, some of them ahead of it.

Key:
[1] = molecular target: human α-thrombin (human) (UniProt P00734); test: cell-based or functional assay
[2] = molecular target: human α-thrombin (human) (UniProt P00734); test: amidolytic assay with chromogenic substrate S-2238, Lineweaver-Burk, 25° C.
[3] = molecular target: P3182, Bbs-R-(D-Pip)-Gly-Glu-Gln-Lys-Leu-Ile-Ser-Glu-Glu-Asp-Leu-Gly-Asp-Phe-Glu-Glu-Ile-Pro-Glu-Glu-Tyr-Leu-Gln; test: cell-based or functional assay
Chain of P3182, Bbs-R-(D-Pip)-Gly-Glu-Gln-Lys-Leu-Ile-Ser-Glu-Glu-Asp-Leu-Gly-Asp-Phe-Glu-Glu-Ile-Pro-Glu-Glu-Tyr-Leu-Gln (peptide, as listed by the source, form in doubt): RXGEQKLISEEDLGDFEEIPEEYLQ

IC50, nM (25° C.), fibrinogen clotting assay [1]: 19 nM
Substance: P3162, Bbs-R-(D-Pip)-Gly-(Ser-Pro-His-Tyr(P)-Glu-Lys-Val-Ser-Gly)2-Asp-Phe-Glu-Glu-Ile-Pro-Glu-Glu-Tyr-Leu-Gln (peptide)

IC50, nM (37° C.), fibrinogen clotting assay [1]: 1.1 nM
Substance: P3172-P3165, disulfide-linked Bbs-Arg-(D-Pip)-Gly-Cys...Cys-(Gly-Ser)8-Gly-Asp-Phe-Glu-Glu-Ile-Pro-Glu-Glu-Tyr-Leu-Gln (peptide)

clotting onset time with 150 nM peptide, 0.6 nM thrombin and 1.2 µM antibody [3]: 230 s
Substance: anti-c-myc antibody 9E10 (Sigma)

Second part, the substance before the results:

Substance: P3170, Bbs-R-(D-Pip)-Gly-(Ser-Pro-His-Tyr(P)-Glu-Lys-Val-Ser-Gly)-Asp-Phe-Glu-Glu-Ile-Pro-Glu-Glu-Tyr-Leu-Gln (peptide)
Ki [2]: 1.5 nM
IC50, nM (25° C.), fibrinogen clotting assay [1]: 0.7 nM

Substance: P3291, Bbs-Arg-dPip-Gly-Arg-Lys-Ser-Leu-Thr-Ile-Tyr-Ala-Gln-Val-Gln-Lys-Gly-Asp-Phe-Glu-Glu-Ile-Pro-Glu-Glu-Tyr-Leu-Gln (peptide)
IC50, nM, fibrinogen clotting assay (the text says 25° C.) [1]: 7 nM
